Measurements reported in US20150274840A1 (GENEFRONTIER, published 2015).

Columns and labels:
[1] = target: T1, fusion protein of region 491-540 of human ADAM28s added to the C-terminal of MBP (human); test: Western blotting of MBP fusion proteins
T1 construct: also called MBP-ADAM28s 491-540
T1 chain: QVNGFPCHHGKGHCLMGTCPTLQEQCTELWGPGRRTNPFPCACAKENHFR

[2] = target: T2, fusion protein of region 399-540 of human ADAM28s added to the C-terminal of MBP (human); test: Western blotting of MBP fusion proteins
T2 chain: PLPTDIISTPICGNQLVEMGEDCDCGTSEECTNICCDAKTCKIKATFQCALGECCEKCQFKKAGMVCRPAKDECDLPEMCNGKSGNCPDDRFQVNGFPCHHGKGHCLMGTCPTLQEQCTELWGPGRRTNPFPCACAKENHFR

[3] = target: T3, peptide #26 of the human ADAM28s peptide array (ENFSKWRGSVLS) (human); test: peptide array, HRP-labeled antibody
T3 construct: 12-mer partial peptide of human ADAM28s, immobilized on an array
T3 peptide: ENFSKWRGSVLS
Method: (§1) Specifically, as shown below, a peptide array consisting of peptides having the residue number of 12 amino acid residues with an offset of 3 amino acid residues were prepared for a sequence covering from the protease domain to the C-terminal of human ADAM28s. HRP-labeled anti-human ADAM28s antibody was reacted with the peptide array.

[4] = target: T4, peptide #25 of the human ADAM28s peptide array (FTLENFSKWRGS) (human); test: peptide array, HRP-labeled antibody
T4 construct: 12-mer partial peptide of human ADAM28s, immobilized on an array
T4 peptide: FTLENFSKWRGS
Method: as §1

B1: anti-human ADAM28 human antibody 211-14 (antibody, V domains shown)
VH: QVQLQQSGPGLVKPSQTLSLTCAISGDSVSSNTAAWGWIRQSPGRGLEWLGVIYYRSKWYNDYAVSVKSRITINPDTSKNQFSLQLNSVTPEDTAVYYCARYKESIPEYGFDFWGQGTLVTVSS
VL: DIVMTQSPLSLPVTPGEPASISCRSSQSLLYSNGYIYLNWYLQKPGQSPQLLIYLGSNRASGVPDRFSGSGSGTDFTLKISRVEAEDVGVYYCFQYGGSPLTFGQGTKVEIKR
notes: Clone from the HuCAL GOLD phage library, first made as Fab, then converted to IgG (heavy chain constant region IgG1)
B1: binds [1]; binds [2].

B2: anti-human ADAM28 human antibody 211-12 (antibody, V domains shown)
VH: QVQLVQSGAEVKKPGESLKISCKGSGYSFTSYWIAWVRQMPGKGLEWMGIIYPSDSYTRYSPSFQGQVTISADKSISTAYLQWSSLKASDTAMYYCARWSWMGRGFDNWGQGTLVTVSS
VL: DIQMTQSPSSLSASVGDRVTITCRASQDISSYLNWYQQKPGKAPKLLIYGVSTLQSGVPSRFSGSGSGTDFTLTISSLQPEDFATYYCLQYDSLPSTFGQGTKVEIKR
notes: Clone from the HuCAL GOLD phage library, first made as Fab, then converted to IgG (heavy chain constant region IgG1) in HEK293T cells; It was HRP-labeled in the peptide array
B2: binds [3]; binds [4].
